Substrate: N[C@@H](CCC(=O)N[C@H](CSc1ccc([N+](=O)[O-])cc1[N+](=O)[O-])C(=O)NCC(=O)O)C(=O)O
Assay: TP_TRANSPORTER: uptake in membrane vesicle from MRP1-expressing HeLa cells
Type: functional, cell membranes

B1: Multidrug resistance-associated protein 1 (Homo sapiens) (protein)
chain: MALRGFCSADGSDPLWDWNVTWNTSNPDFTKCFQNTVLVWVPCFYLWACFPFYFLYLSRHDRGYIQMTPLNKTKTALGFLLWIVCWADLFYSFWERSRGIFLAPVFLVSPTLLGITMLLATFLIQLERRKGVQSSGIMLTFWLVALVCALAILRSKIMTALKEDAQVDLFRDITFYVYFSLLLIQLVLSCFSDRSPLFSETIHDPNPCPESSASFLSRITFWWITGLIVRGYRQPLEGSDLWSLNKEDTSEQVVPVLVKNWKKECAKTRKQPVKVVYSSKDPAQPKESSKVDANEEVEALIVKSPQKEWNPSLFKVLYKTFGPYFLMSFFFKAIHDLMMFSGPQILKLLIKFVNDTKAPDWQGYFYTVLLFVTACLQTLVLHQYFHICFVSGMRIKTAVIGAVYRKALVITNSARKSSTVGEIVNLMSVDAQRFMDLATYINMIWSAPLQVILALYLLWLNLGPSVLAGVAVMVLMVPVNAVMAMKTKTYQVAHMKSKDNRIKLMNEILNGIKVLKLYAWELAFKDKVLAIRQEELKVLKKSAYLSAVGTFTWVCTPFLVALCTFAVYVTIDENNILDAQTAFVSLALFNILRFPLNILPMVISSIVQASVSLKRLRIFLSHEELEPDSIERRPVKDGGGTNSITVRNATFTWARSDPPTLNGITFSIPEGALVAVVGQVGCGKSSLLSALLAEMDKVEGHVAIKGSVAYVPQQAWIQNDSLRENILFGCQLEEPYYRSVIQACALLPDLEILPSGDRTEIGEKGVNLSGGQKQRVSLARAVYSNADIYLFDDPLSAVDAHVGKHIFENVIGPKGMLKNKTRILVTHSMSYLPQVDVIIVMSGGKISEMGSYQELLARDGAFAEFLRTYASTEQEQDAEENGVTGVSGPGKEAKQMENGMLVTDSAGKQLQRQLSSSSSYSGDISRHHNSTAELQKAEAKKEETWKLMEADKAQTGQVKLSVYWDYMKAIGLFISFLSIFLFMCNHVSALASNYWLSLWTDDPIVNGTQEHTKVRLSVYGALGISQGIAVFGYSMAVSIGGILASRCLHVDLLHSILRSPMSFFERTPSGNLVNRFSKELDTVDSMIPEVIKMFMGSLFNVIGACIVILLATPIAAIIIPPLGLIYFFVQRFYVASSRQLKRLESVSRSPVYSHFNETLLGVSVIRAFEEQERFIHQSDLKVDENQKAYYPSIVANRWLAVRLECVGNCIVLFAALFAVISRHSLSAGLVGLSVSYSLQVTTYLNWLVRMSSEMETNIVAVERLKEYSETEKEAPWQIQETAPPSSWPQVGRVEFRNYCLRYREDLDFVLRHINVTINGGEKVGIVGRTGAGKSSLTLGLFRINESAEGEIIIDGINIAKIGLHDLRFKITIIPQDPVLFSGSLRMNLDPFSQYSDEEVWTSLELAHLKDFVSALPDKLDHECAEGGENLSVGQRQLVCLARALLRKTKILVLDEATAAVDLETDDLIQSTIRTQFEDCTVLTIAHRLNTIMDYTRVIVLDKGEIQEYGAPSDLLQQRGLFYSMAKDAGLV
Protein B1 has a Km of 3.6 µM.

From ChEMBL document CHEMBL2074072, “Transport of glutathione, glucuronate, and sulfate conjugates by the MRP gene-encoded conjugate export pump” (Cancer Res, 1996)
